# Changes are numbered by the printed parent chain. Names and notes keep the numbering of the source.
# B1: TetRrev6-34: revTetR(BD) R94L D95A H100 (protein)
# chain: MSRLDKSKVINSALELLNEVGIEGLTTRKLAQKLGVEQPTLYWHVKNKRALLDALAVEILARHHDYSLPAAGESWQSFLRNNAMSFRRALLRYLAGAKVQLGTRPDEKQYDTVETQLRFMTENGFSLRDGLYAISAVSHFTLGAVLEQQEHTAALTDRPAAPDENLPPLLREALQIMDSDDGEQAFLHGLESLIRGFEVQLTALLQIV
# modifications: H100 change unspecified; Modified tetracycline repressor
# notes: revTetR(BD) R94L D95A H100
# B2: TetRrev4/6-4: revTetR(BD) D95A V99G V57V A61G (protein)
# chain: B1 chain with A61G, L94R, V99G, Q100H
# modifications: Modified tetracycline repressor
# notes: revTetR(BD) D95A V99G V57V A61G
# B3: TetRrev6-37-1: revTetR(BD) G96R A97S V99L (protein)
# chain: B1 chain with L94R, A95D, G96R, A97S, V99L, Q100H
# modifications: Modified tetracycline repressor
# notes: revTetR(BD) G96R A97S V99L
# B4: TetRrev6-38: revTetR(BD) Y93H G96W K98Q V99G (protein)
# chain: B1 chain with Y93H, L94R, A95D, G96W, K98Q, V99G, Q100H
# modifications: Modified tetracycline repressor
# notes: revTetR(BD) Y93H G96W K98Q V99G
# B5: TetRrev6-54: revTetR(BD) Y93F D95N V99F (protein)
# chain: B1 chain with Y93F, L94R, A95N, V99F, Q100H
# modifications: Modified tetracycline repressor
# notes: revTetR(BD) Y93F D95N V99F
# B6: TetRrev6-51: revTetR(BD) A97T V99G (protein)
# chain: B1 chain with L94R, A95D, A97T, V99G, Q100H
# modifications: Modified tetracycline repressor
# notes: revTetR(BD) A97T V99G
# B7: TetRrev6-35: revTetR(BD) D95Y V99E (protein)
# chain: B1 chain with L94R, A95Y, V99E, Q100H
# modifications: Modified tetracycline repressor
# notes: revTetR(BD) D95Y V99E
# B8: TetRrev6-50: revTetR(BD) V99G (protein)
# chain: B1 chain with L94R, A95D, V99G, Q100H
# modifications: Modified tetracycline repressor
# notes: revTetR(BD) V99G
# B9: TetRrev4/6-3: revTetR(BD) D95A V99G (protein)
# chain: B1 chain with L94R, V99G, Q100H
# modifications: Modified tetracycline repressor
# notes: revTetR(BD) D95A V99G
# B10: TetRrev6-53: revTetR(BD) A97P K98R V99D (protein)
# chain: B1 chain with L94R, A95D, A97P, K98R, V99D, Q100H
# modifications: Modified tetracycline repressor
# notes: revTetR(BD) A97P K98R V99D
# B11: TetRrev4/6-5: revTetR(BD) A54S V99R (protein)
# chain: B1 chain with A54S, L94R, A95D, V99R, Q100H
# modifications: Modified tetracycline repressor
# notes: revTetR(BD) A54S V99R
# System: tet operator sequence
# Assay: β-galactosidase activity of a tetracycline-regulated promoter in transformed E. coli with revTetR, in the presence and absence of anhydrotetracycline (atc)
# Assay type: cell-based, Escherichia coli
# Conditions: RevTetR isolate cultured in the absence of anhydrotetracycline (ATC)
# In short: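 TetR(BD) chimera mutants (TetR(B) residues 1–50, TetR(D) 51–208) expressed in E. coli regulating a tet operator-controlled lacZ. β-Galactosidase measured in Miller units at 28 °C and 37 °C with and without anhydrotetracycline; reported as percent of maximal expression without Tet repressor.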
row,Molecule,"β-Galactosidase Activity, Cultured Without ATC"
1,B1,85.725
2,B2,96.491
3,B3,55.277
4,B4,96.194
5,B5,6.393
6,B6,93.974
7,B7,74.8797
8,B8,60.464
9,B9,69.291
10,B10,107.107
11,B11,97.92

# Same assay, conditions: RevTetR isolate cultured in the presence of anhydrotetracycline (ATC)
row,Molecule,"β-Galactosidase Activity, Cultured With ATC"
1,B1,40.254
2,B2,1.639
3,B3,20.04
4,B4,46.91
5,B5,1.268
6,B6,4.499
7,B7,7.0255
8,B8,2.469
9,B9,0.878
10,B10,27.918
11,B11,5.7

# Reference: patent US20030186281A1, “Modified tetracycline repressor protein compositions and methods of use” (priority 2001, published 2003)
